The values that follow come from the RNAGym collection of RNA variant scans (doi:10.7554/elife.80360).

To fix the notation:
B1: Hairpin Ribozyme (parent)
chain: GUCCUCUUUCACGUGCGCGUGAAAGAGAGAAGUGAACCAGAGAAACACACGUUGUGGUAUAUUACCUGGUA

Variants of B1 are the subject of the series. Nature of the series: self-cleavage, relative activity (ratio to wild type); higher = more cleavage; co-transcriptional.
On to GUCCUCUUUGACGUGCGCGUGAAAGAGAGAAGUGCACCAGAGAAACACACGUUGUGGUAUAUUACCUGGUA [C10G A35C], for which the self-cleavage is 0.726.
With GUCCUCUUUAACGUGCGCGUGAAAGAGAGAAGUGAACCAGAGAAACACACAUUGUGGUAUAUUACCUGGUA [C10A G51A], the self-cleavage turned out to be 0.695.
With GUCCUCUUUUACGUGCGCGUGAACGAGAGAAGUGAACCAGAGAAACACACGUUGUGGUAUAUUACCUGGUA [C10U A24C], the self-cleavage was found to be 0.613.
The same measure for GUCCUCUUUAACGUGCGCGUGAAAGAGAGAAGUGAACCAGAGAAACACACGUUGUGGUAUAUUACCAGGUA [C10A U67A]: 0.0418.
With GUCCUCUUUAACGUGCGCGUGAAAGAGAGAAGUCAACCAGAGAAACACACGUUGUGGUAUAUUACCUGGUA [C10A G34C] the figure was 0.942; with GUCCUCUUUGACGUGCGCGUGAAAGAGAGAAGUGAACCAGAGAAACACACGUUGUGGUAUCUUACCUGGUA [C10G A61C], 0.255; with GUCCUCUUUGACGUGCGCGUGAAAGAGAGAAGUGAACCAGAGAAACACACGUUGUGGUAUUUUACCUGGUA [C10G A61U], 0.2.
The same measure for GUCCUCUUUGACGUGCGCGUGAAAGAGAGAAGUGAACCAGAGAGACACACGUUGUGGUAUAUUACCUGGUA [C10G A44G]: 0.108; for GUCCUCUUUGACGUGCGCGUGAAAGAGAGAAGUGAACCAGAGACACACACGUUGUGGUAUAUUACCUGGUA [C10G A44C]: 0.126; for GUCCUCUUUGACGUGCGCGUGAAAGAGAGAAGUGAACCAGAGAUACACACGUUGUGGUAUAUUACCUGGUA [C10G A44U]: 0.133.
On to GUCCUCUUUGACGUGCGCGUGAAAGAGAGAAGUGAACCAGAGAAACACACGUUGUGGCAUAUUACCUGGUA [C10G U58C], for which the self-cleavage came to 0.681.
On to GUCCUCUUUGACGUGCCCGUGAAAGAGAGAAGUGAACCAGAGAAACACACGUUGUGGUAUAUUACCUGGUA [C10G G17C], for which the self-cleavage was 0.533.
In the case of GUCCUCUUUGACGUGCUCGUGAAAGAGAGAAGUGAACCAGAGAAACACACGUUGUGGUAUAUUACCUGGUA [C10G G17U], the self-cleavage amounted to 0.539.
With GUCCUCUUUGACGUGCGCGUGAAAGAGAGAAGUGAACCAGAGAAACAAACGUUGUGGUAUAUUACCUGGUA [C10G C48A] the figure was 0.151; with GUCCUCUUUGACGUGCGCGUGAAAGAGAGAAGUGAACCAGAGAAACACACGUCGUGGUAUAUUACCUGGUA [C10G U53C], 0.59.
Consider GUCCUCUUUGACGUGCGCGUGAAAGAGAGAAGUGAACCAGAGAAACACACGUAGUGGUAUAUUACCUGGUA [C10G U53A], for which the self-cleavage amounted to 0.663.
With GUCCUCUUUGACGUGCGCGUGAAAGAGAGAAGUGAACCAGAGAAACACACGUUGUGGUAUAUUCCCUGGUA [C10G A64C] the figure was 0.169; with GUCCUCUUUGACAUGCGCGUGAAAGAGAGAAGUGAACCAGAGAAACACACGUUGUGGUAUAUUACCUGGUA [C10G G13A], 0.568.
With GUCCUCUUUGACGUGCGCGUGAAAGAGAGAAGUGAACCAGAGAAACACACGUUGUGGUAUAUUACCUGGUC [C10G A71C] the figure was 1.2.
The same measure for GUCCUCUUUGACGUGCGCGUGAAAGAGAGAAGUGAACCAGAGAAACACACGUUGUGGUAUACUACCUGGUA [C10G U62C]: 0.261; for GUCCUCUUUGACGUGCGCGUGAAAGAGAGAAGUGAACCAGAGAAACACACGUUGUGGUAUAAUACCUGGUA [C10G U62A]: 0.0993; for GUCCUCUUUGACGUGCGCGUGAAAGAGAGAAUUGAACCAGAGAAACACACGUUGUGGUAUAUUACCUGGUA [C10G G32U]: 0.15.
Regarding GUCCUCUUUGACGUGCGCGUGAACGAGAGAAGUGAACCAGAGAAACACACGUUGUGGUAUAUUACCUGGUA [C10G A24C], the self-cleavage is 0.641.
The same measure for GUCCUCUUUGACGUGCGCGUGAAAGAGAGGAGUGAACCAGAGAAACACACGUUGUGGUAUAUUACCUGGUA [C10G A30G]: 0.143; for GUCCUCUUUGACGUGCGCGUGAAAGAGAGCAGUGAACCAGAGAAACACACGUUGUGGUAUAUUACCUGGUA [C10G A30C]: 0.168.
With GUCCUCUUUGACGUGCGCGUGAAAGAGAGUAGUGAACCAGAGAAACACACGUUGUGGUAUAUUACCUGGUA [C10G A30U], the self-cleavage came to 0.0991.
For GUCCUCUUUGACGUGCGCGUGAAAGAGAGAAGUGAAACAGAGAAACACACGUUGUGGUAUAUUACCUGGUA [C10G C37A], the self-cleavage stood at 0.22.
In the case of GUCCUCUUUAACGUGCGCGUGAAAGAGAGAAGUGAACCAGAGAAACACACGUUGUGGUAUAUUACCUCGUA [C10A G68C], the self-cleavage is 0.114.
With GUCCUCUUUUGCGUGCGCGUGAAAGAGAGAAGUGAACCAGAGAAACACACGUUGUGGUAUAUUACCUGGUA [C10U A11G] the figure was 0.734; with GUCCUCUUUAACGUGCGCGUGAAAGAGAGAAGUGAACCAGAGAAACACACGUGGUGGUAUAUUACCUGGUA [C10A U53G], 0.514; with GUCCUCUUUGACGUGCGCGUGAAAGAGAGAAGUGAACCAGAGAAACACACUUUGUGGUAUAUUACCUGGUA [C10G G51U], 0.699.
The same measure for GUCCUCUUUGACGUGCGCGUGAAAGAGAGAAGUGAACCAGAGAAACACACAUUGUGGUAUAUUACCUGGUA [C10G G51A]: 0.755.
On to GUCCUCUUUAACGUGCGCGUGAAAGAGAGAAGUGAACCAGAGAAACACACGUUGUGGCAUAUUACCUGGUA [C10A U58C], for which the self-cleavage was determined as 0.858.
For GUCCUCUUUAACGUGCGCGUGAAAGAGAGAAGUGAACCAGAGAAACACACGUUGUAGUAUAUUACCUGGUA [C10A G56A], the self-cleavage is 0.133.
For the variant GUCCUCUUUAACGUGCGCGUGAAAGAGAGAAGUGAACCAGAGAAACACACGUUGUCGUAUAUUACCUGGUA [C10A G56C], the self-cleavage amounted to 0.11.
With GUCCUCUUUGACGUGCGCGUGAAAGAGAGAAGUGAACCAGAGAAACACACGUUGUGGUAUAUUACCUGGGA [C10G U70G], the self-cleavage amounted to 0.611.
The same measure for GUCCUCUUUGACGUGCGCGUGAAAGAGAGAAGUGAACCAGAGAAACACACGUUGUGGUAUAUUACCUGAUA [C10G G69A]: 0.299; for GUCCUCUUUGACGUGCGCGUGAAAGAGAGAAGUGAACCAGAGAAACACACGUUGUGGUAUAUUACCUGUUA [C10G G69U]: 0.142.
